Experimental data as given in the supplement of paper PMC9112550, “Optimization of the antimicrobial peptide Bac7 by deep mutational scanning” (BMC Biology, 2022).

Each sequence was assayed on Escherichia coli TOP10 (assay: shrunken log2 fold change of peptide-encoding DNA abundance (4.5 h post-induction vs induction); higher = less antimicrobial activity (less host growth inhibition)). Conditions: time post-induction: 4.5 h; library: site-saturation at positions 5, 18, 19, 20.
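Also: peptides expressed intracellularly from a pBAD plasmid library in pooled LB shake-flask culture, induced with 0.3% L-arabinose, DNA abundance read by NGS, three biological replicates, DESeq2 with apeglm shrinkage.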

Sequence | shrunken log2 fold change
RRIRKRPPRLPRPRPRPLTFPRP | 0.299
RRIRKRPPRLPRPRPRPLTMPRP | 0.185
RRIRKRPPRLPRPRPRPLTQPRP | 0.198
RRIRKRPPRLPRPRPRPLVHPRP | 0.0415
RRIRKRPPRLPRPRPRPLWCPRP | 0.0281
RRIRKRPPRLPRPRPRPLWHPRP | 0.0951
RRIRKRPPRLPRPRPRPLWKPRP | -0.206
RRIRKRPPRLPRPRPRPLYPPRP | -0.177
RRIRKRPPRLPRPRPRPMAPPRP | 0.0811
RRIRKRPPRLPRPRPRPMAQPRP | -0.0932
RRIRKRPPRLPRPRPRPMATPRP | 0.329
RRIRKRPPRLPRPRPRPMCDPRP | -0.0708
RRIRKRPPRLPRPRPRPMCHPRP | -0.0182
RRIRKRPPRLPRPRPRPMCKPRP | 0.0429
RRIRKRPPRLPRPRPRPMCPPRP | 0.199
RRIRKRPPRLPRPRPRPMDQPRP | 0.0935
RRIRKRPPRLPRPRPRPMGLPRP | -0.000777
RRIRKRPPRLPRPRPRPMGVPRP | 0.196
RRIRKRPPRLPRPRPRPMHNPRP | -0.136
RRIRKRPPRLPRPRPRPMIEPRP | 0.0881
RRIRKRPPRLPRPRPRPMIHPRP | -0.00347
RRIRKRPPRLPRPRPRPMIYPRP | -0.718
RRIRKRPPRLPRPRPRPMKSPRP | 0.37
RRIRKRPPRLPRPRPRPMMCPRP | 0.0781
RRIRKRPPRLPRPRPRPMMDPRP | 0.0443

Sequence | shrunken log2 fold change
RRIRKRPPRLPRPRPRPMMKPRP | 1.05
RRIRKRPPRLPRPRPRPMMYPRP | -0.00208
RRIRKRPPRLPRPRPRPMPDPRP | 0.525
RRIRKRPPRLPRPRPRPMPEPRP | -0.0371
RRIRKRPPRLPRPRPRPMPQPRP | 0.0873
RRIRKRPPRLPRPRPRPMPYPRP | -0.0398
RRIRKRPPRLPRPRPRPMQSPRP | 0.995
RRIRKRPPRLPRPRPRPMREPRP | 1.4
RRIRKRPPRLPRPRPRPMSDPRP | 0.364
RRIRKRPPRLPRPRPRPMSGPRP | -0.211
RRIRKRPPRLPRPRPRPMSIPRP | -0.0141
RRIRKRPPRLPRPRPRPMSMPRP | 0.0472
RRIRKRPPRLPRPRPRPMSTPRP | 0.41
RRIRKRPPRLPRPRPRPMSWPRP | 5.25
RRIRKRPPRLPRPRPRPMVCPRP | 0.00938
RRIRKRPPRLPRPRPRPMVHPRP | -0.079
RRIRKRPPRLPRPRPRPMYDPRP | -0.127
RRIRKRPPRLPRPRPRPMYVPRP | -0.0793
RRIRKRPPRLPRPRPRPNADPRP | 0.0182
RRIRKRPPRLPRPRPRPNCEPRP | 0.082
RRIRKRPPRLPRPRPRPNCSPRP | 0.149
RRIRKRPPRLPRPRPRPNDKPRP | -0.0282
RRIRKRPPRLPRPRPRPNDPPRP | -0.0515
RRIRKRPPRLPRPRPRPNDSPRP | -0.042
RRIRKRPPRLPRPRPRPNFAPRP | 0.155

Sequence | shrunken log2 fold change
RRIRKRPPRLPRPRPRPNFQPRP | 0.287
RRIRKRPPRLPRPRPRPNFWPRP | -0.152
RRIRKRPPRLPRPRPRPNHKPRP | -0.203
RRIRKRPPRLPRPRPRPNHWPRP | 0.0915
RRIRKRPPRLPRPRPRPNKAPRP | 0.0692
RRIRKRPPRLPRPRPRPNKNPRP | 0.125
RRIRKRPPRLPRPRPRPNLLPRP | -0.263
RRIRKRPPRLPRPRPRPNLVPRP | -0.0428
RRIRKRPPRLPRPRPRPNLWPRP | 0.492
RRIRKRPPRLPRPRPRPNPWPRP | 0.00515
RRIRKRPPRLPRPRPRPNQDPRP | -0.184
RRIRKRPPRLPRPRPRPNRWPRP | 0.398
RRIRKRPPRLPRPRPRPNVLPRP | -0.112
RRIRKRPPRLPRPRPRPNWKPRP | 0.363
RRIRKRPPRLPRPRPRPNYGPRP | -0.226
RRIRKRPPRLPRPRPRPPACPRP | 0.197
RRIRKRPPRLPRPRPRPPAHPRP | 0.808
RRIRKRPPRLPRPRPRPPALPRP | 0.57
RRIRKRPPRLPRPRPRPPCKPRP | -0.242
RRIRKRPPRLPRPRPRPPCLPRP | 0.123
RRIRKRPPRLPRPRPRPPCNPRP | 0.189
RRIRKRPPRLPRPRPRPPCQPRP | 0.47
RRIRKRPPRLPRPRPRPPCVPRP | 0.443
RRIRKRPPRLPRPRPRPPCWPRP | 1.03
RRIRKRPPRLPRPRPRPPCYPRP | 0.202

Sequence | shrunken log2 fold change
RRIRKRPPRLPRPRPRPPDEPRP | 1.89
RRIRKRPPRLPRPRPRPPDMPRP | 0.469
RRIRKRPPRLPRPRPRPPDTPRP | 0.896
RRIRKRPPRLPRPRPRPPEAPRP | 0.948
RRIRKRPPRLPRPRPRPPEWPRP | 1.19
RRIRKRPPRLPRPRPRPPFAPRP | 0.745
RRIRKRPPRLPRPRPRPPIMPRP | -0.0359
RRIRKRPPRLPRPRPRPPKCPRP | 0.069
RRIRKRPPRLPRPRPRPPKMPRP | 0.383
RRIRKRPPRLPRPRPRPPLPPRP | 0.74
RRIRKRPPRLPRPRPRPPMNPRP | 0.123
RRIRKRPPRLPRPRPRPPNVPRP | 0.197
RRIRKRPPRLPRPRPRPPQEPRP | 0.0788
RRIRKRPPRLPRPRPRPPQGPRP | 0.469
RRIRKRPPRLPRPRPRPPQIPRP | 0.661
RRIRKRPPRLPRPRPRPPSFPRP | 0.288
RRIRKRPPRLPRPRPRPPSGPRP | 1.1
RRIRKRPPRLPRPRPRPPSQPRP | 0.866
RRIRKRPPRLPRPRPRPPSWPRP | 0.401
RRIRKRPPRLPRPRPRPPTKPRP | 0.12
RRIRKRPPRLPRPRPRPPVDPRP | 0.0616
RRIRKRPPRLPRPRPRPPVQPRP | 0.83
RRIRKRPPRLPRPRPRPPWEPRP | 1.23
RRIRKRPPRLPRPRPRPPWHPRP | 0.349
RRIRKRPPRLPRPRPRPQADPRP | 0.0626

Sequence | shrunken log2 fold change
RRIRKRPPRLPRPRPRPQALPRP | 0.228
RRIRKRPPRLPRPRPRPQCTPRP | -0.0504
RRIRKRPPRLPRPRPRPQDMPRP | -0.036
RRIRKRPPRLPRPRPRPQFNPRP | -0.281
RRIRKRPPRLPRPRPRPQGAPRP | 0.451
RRIRKRPPRLPRPRPRPQGVPRP | -0.0162
RRIRKRPPRLPRPRPRPQHFPRP | 0.0698
RRIRKRPPRLPRPRPRPQKWPRP | 0.0282
RRIRKRPPRLPRPRPRPQLEPRP | 0.327
RRIRKRPPRLPRPRPRPQLRPRP | 0.2
RRIRKRPPRLPRPRPRPQMIPRP | -0.14
RRIRKRPPRLPRPRPRPQMKPRP | -0.0666
RRIRKRPPRLPRPRPRPQMNPRP | 0.104
RRIRKRPPRLPRPRPRPQPPPRP | 0.672
RRIRKRPPRLPRPRPRPQPRPRP | 0.752
RRIRKRPPRLPRPRPRPQQPPRP | -0.041
RRIRKRPPRLPRPRPRPQRGPRP | -0.0338
RRIRKRPPRLPRPRPRPQRSPRP | 0.392
RRIRKRPPRLPRPRPRPQSDPRP | 0.247
RRIRKRPPRLPRPRPRPQSVPRP | 0.139
RRIRKRPPRLPRPRPRPQTQPRP | 0.26
RRIRKRPPRLPRPRPRPQTSPRP | -0.122
RRIRKRPPRLPRPRPRPQWGPRP | 0.227
RRIRKRPPRLPRPRPRPQWMPRP | -0.307
RRIRKRPPRLPRPRPRPQYFPRP | -0.0337

Sequence | shrunken log2 fold change
RRIRKRPPRLPRPRPRPRADPRP | 0.511
RRIRKRPPRLPRPRPRPRAKPRP | 0.173
RRIRKRPPRLPRPRPRPRASPRP | 0.675
RRIRKRPPRLPRPRPRPRCIPRP | -0.187
RRIRKRPPRLPRPRPRPRFRPRP | 0.276
RRIRKRPPRLPRPRPRPRHCPRP | 0.0472
RRIRKRPPRLPRPRPRPRHTPRP | 0.328
RRIRKRPPRLPRPRPRPRIMPRP | 0.0472
RRIRKRPPRLPRPRPRPRLFPRP | 0.104
RRIRKRPPRLPRPRPRPRLPPRP | 0.768
RRIRKRPPRLPRPRPRPRMMPRP | 0.492
RRIRKRPPRLPRPRPRPRNTPRP | -0.0381
RRIRKRPPRLPRPRPRPRNWPRP | 0.95
RRIRKRPPRLPRPRPRPRPQPRP | 0.865
RRIRKRPPRLPRPRPRPRQHPRP | 0.499
RRIRKRPPRLPRPRPRPRRLPRP | 0.0159
RRIRKRPPRLPRPRPRPRRRPRP | 1.27
RRIRKRPPRLPRPRPRPRRVPRP | 0.569
RRIRKRPPRLPRPRPRPRSSPRP | 0.263
RRIRKRPPRLPRPRPRPRTNPRP | 0.238
RRIRKRPPRLPRPRPRPRTVPRP | 0.244
RRIRKRPPRLPRPRPRPRVRPRP | 0.755
RRIRKRPPRLPRPRPRPSCLPRP | -0.307
RRIRKRPPRLPRPRPRPSFKPRP | -0.0346
RRIRKRPPRLPRPRPRPSGMPRP | 0.115
